Data published in US8216581 (University of Pennsylvania, dated 2012).
Changes are numbered by the printed parent chain. Numbers in names are those of the source.

What was measured:
[1] = molecular target: T1, H44L4 full-length IgG; assay: peptide ELISA (scheme of FIG. 8)
T1 construct: also called autoanti-GPIIb/IIIa

[2] = molecular target: T2, GPIIb/IIIa on intact human platelets (human, UniProt P08514 32-1039; P05106 27-788); assay: immunoprecipitation from biotinylated platelets; agrees with ELISA and Glanzmann platelet flow cytometry;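 note: precipitated biotin-labelled platelet membrane proteins visualized with biotinylated horseradish peroxidase-avidin complexes, scored for polypeptides behaving like GPIIb/IIIa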
T2 construct: whole, on cells; also called platelet GPIIb/IIIa; αIIbβ3
Description: Precipitated, biotinylated platelet membrane proteins were detected with biotinylated horseradish peroxidase-avidin complexes (ABC Staining Kit, Pierce).

[3] = molecular target: T3, GPIa/IIa on a stable K562 cell line (UniProt P17301 30-1181; P05556 21-798, limits assumed); assay: flow cytometry on K562 cells expressing GPIa/IIa
T3 construct: whole, on cells; also called K562 cell line expressing GPIa/IIa

LPFDTIIKPWPV [P123-11]
binding result [1]: binds

CTHWWRPAC [P73-10]
binding result [1]: binds

B1: P4-7 (peptide)
peptide: FPLNTIIHSAVY
notes: From the 12-mer linear phage library; also called 12-mer linear peptide
binding result [1]: binds

CVVQWMFQC [P74-1a]
binding result [1]: binds

CVVSWMFQC [P74-8]
binding result [1]: binds

FLPISTLITPSG [P123-8]
binding result [1]: binds

FPLMSLINPWRT [P124-2]
binding result [1]: binds

CIIPFMFQC [P73-9]
binding result [1]: binds

CQHKLPSNC [P73-7]
binding result [1]: binds

B2: P4-2a (peptide)
peptide: CIVPWFFHC
notes: From the Cys-7-mer-Cys constrained phage library; also called C7C constrained peptide
binding result [1]: binds

CVVPWFFHC [P74-4]
binding result [1]: binds

CLIPWMFNC [P74-3]
binding result [1]: binds

B3: P3-4 (peptide)
peptide: CPSLAHRWC
notes: as for B2
binding result [1]: binds

B4: H45L61 (Fab, V domains shown)
VH: QVQLVESGGGVVQPGRSLRLSCAASGFTFSNFNMHWVRQAPGKGLEWVALISYDGSSKYYTDSVKGRFTISRDNSKNTLYLQMNSLRPEDTAVYYCMVVGAFDYWGQGTLVTVSS
VL: EIVLTQSPGTLSLSPGERATLSCRASQSVGSSYLAWYQQKPGQAPRLLIYGVSSRATGIPDRFSGSGSGTDFTLTISRLEPEDFAVYYCQQYGGSPLTFGGGTTVEIK
notes: Soluble Fab, clone A
binding result [2]: no binding | binding result [3]: no binding

B5: H47L63 (Fab, V domains shown)
VH: B4 VH with A24T, S57N, Y59N, T61A, D62N, Y80F, P88V
VL: EIVLTQSPGTLSLSPGERATLSCRASQSVGNNYLAWYQQRPGRAPRLVMYDPSSRATGIPDRFSGSGSGTDFTLTISRLEPEDFAVYYCQQYGNSPPTFGGGTKVEIK
notes: Soluble Fab, clone A
binding result [2]: no binding | binding result [3]: no binding

B6: H47L64 (Fab, V domains shown)
VH: B4 VH with A24T, S57N, Y59N, T61A, D62N, Y80F, P88V
VL: EIVLTQSPDTLSLSPGDRATLSCRASQSVSNYLAWYQQKAGRAPSLLIYGTSRRATDIPDRFSGSGSGTDFTLTISRLEPEDSAVYYCQQYGSASLTFGGGTKVEIK
notes: Soluble Fab, clone A; also called putative GPIb/IX-specific Fab
binding result [2]: no binding | binding result [3]: no binding

CLVPWMFHC [P73-11]
binding result [1]: binds

CIVEHFFHC [P73-2]
binding result [1]: binds

IDVWWLSTQGVP [P124-1]
binding result [1]: binds

B7: H29L104 (Fab, V domains shown)
VH: EVQLVESGGGLVKPGGSLRLSCAASGFTFSSYSMNWVRQAPGKGLEWVSSISSSSSYIYYADSVKGRFTISRDNAKNSLYLQMNSLRAEDTAVYYCARDHPNYYDSSGLFDYWGQGTLVTVSS
VL: SSELTQDPAVSVALGQTVRITCQGDSLRSYYASWYQQKPGQAPVLVIYGKNYRPSGIPDRFSGSSSGNTASLTITGAQAEDEADYYCNSRDSSGNHWVFGGGTKLTVL
notes: Soluble Fab
binding result [2]: no binding | binding result [3]: no binding

B8: H39L44 (Fab, V domains shown)
VH: QVQLVESGGGVVQPGRSLRLSCAASGFTFSNYAMHWVRQAPGKGLEWVAVISYDGSNKYYADSVKGRFTISRDNSKNTLYLQMNSLRPEDTAVYYCARGGVAAFDYWGQGTLVTV
VL: DIVMTQSPVSLAVTPGEPASISCRSSQSLLHSNGYNYLDWYLQKPGQSPQLLIYLGSTRASGVPDRFSGSGSGTDFTLKINRVEAEDVGVYYCMQALQSPFTFGGGTKVEIK
notes: Soluble Fab
binding result [2]: no binding | binding result [3]: no binding

B9: H39L46 (Fab, V domains shown)
VH: B8 VH
VL: DIVMTQSPLSLPVTPGEPASISCRSSQSLLHSNGNNYLDWYLQKPGQSPQLLIYLASNRASGVPDRFSGSGSGTDFTLKISRVEPEDVGLYYCMQALQTPLTFGGGSKVEIK
notes: Soluble Fab
binding result [2]: no binding | binding result [3]: no binding

CVTSKPHTC [P74-5]
binding result [1]: binds

LPFNTLIVPGRT [P124-11]
binding result [1]: binds

WSLHTLGLPFVF [P123-10]
binding result [1]: binds

B10: P4-12 (peptide)
peptide: DLRLNSLIVPWS
notes: as for B1
binding result [1]: binds

B11: H37L40 (Fab, V domains shown)
VH: QVQLVESGGGVVQPGRSLRLSCAASGFTFSNYAMHWVRQAPGKGLEWVAVISYDGSNKYYADSVKGRFTISRDNSKNTLYLQMNSLRPEDTAVYYCARGGVAAFDYWGQGTLVTVSS
VL: DIVMTQSPLSLSVSPGEPASISCRSSQSLLDSNGHNFLDWYLQKPGQSPQLLIFVGSYRALGVPDRFTGSGTGTDFTLKISRVEPEDVGVYYCMQGLQAPITFGQGTKLDIK
notes: Soluble Fab
binding result [2]: no binding | binding result [3]: no binding

B12: H38L74 (Fab, V domains shown)
VH: B11 VH with A102G
VL: EIVLTQSPATLSLSPGERATLSCRASQSVSSYLAWYQQKPGQAPRLLIYDASNRATGIPARFSGSGSGTDFTLTISSLEPEDFAVYYCQQRSNWPTFGGGTKVEIK
notes: Soluble Fab
binding result [2]: no binding | binding result [3]: no binding

B13: H38L72 (Fab, V domains shown)
VH: B11 VH with A102G
VL: EIVLTQSPATLSVSPGERATLSCRASQSVSSYLAWYQQKPGQAPRLLIYDASNRATGIPARFSGSGSGTDFTLTISSLEPEDFAVYYCQQRSNWPLTFGQGTKVEIK
notes: Soluble Fab
binding result [2]: no binding | binding result [3]: no binding

B14: H38L76 (Fab, V domains shown)
VH: B11 VH with A102G
VL: not shown
notes: Soluble Fab
binding result [2]: no binding | binding result [3]: no binding

B15: H38L49 (Fab, V domains shown)
VH: B11 VH with A102G
VL: not shown
notes: Soluble Fab
binding result [2]: no binding | binding result [3]: no binding

B16: H38L55 (Fab, V domains shown)
VH: B11 VH with A102G
VL: DIVMTQSPLSLPVTPGEPASISCRSNQSVLHSNGRHYLDWYLQKPGQSPQLLIYMVFNRASGVPDRFSGSGSGTDFTLKISRVESEDVGVYYCMQAQQTPVTFGQGTRLDIK
notes: Soluble Fab
binding result [2]: no binding | binding result [3]: no binding

B17: H37L92 (Fab, V domains shown)
VH: B11 VH
VL: QSALTQPASVSGSPGQSITISCTGTSSDVGGYKYVSWYQQHPGKAPKLIIYDVTNRPSGVSKRFSGSKSGNTASLTISGLQAEDEADYYCSSYTSRSTPVFGGGTKVTVL
notes: Soluble Fab
binding result [2]: no binding | binding result [3]: no binding

B18: H36L76 (Fab, V domains shown)
VH: B11 VH with N31S
VL: not shown
notes: Soluble Fab, clone B
binding result [2]: no binding | binding result [3]: no binding

B19: H37L50 (Fab, V domains shown)
VH: B11 VH
VL: not shown
notes: Soluble Fab, clone B
binding result [2]: no binding | binding result [3]: no binding

B20: H38L75 (Fab, V domains shown)
VH: B11 VH with A102G
VL: B13 VL with V13L, S30R, Y32F, A51T, N53K, A55P, A60D, N93S, Q100G, K103T
notes: Soluble Fab
binding result [2]: no binding | binding result [3]: no binding

CTWLPYPYC [P74-9]
binding result [1]: binds

KHSMPINAILPP [P124-8]
binding result [1]: binds

CETWWRLSC [P73-6]
binding result [1]: binds

B21: H10L122 (Fab, V domains shown)
VH: QVQLVQSGAEVKKPGASVKVSCKASGYSFSNYYMHWVRQAPGEGLEWMGIINPKGGTTSYAQKFQGRVTIAADKFTNSAYMEPSSLRYEDTAVYFCARAKFSWSPDIWGQGTVVTVSS
VL: QAVVTQEPSLTVSPGGTVTLTCDSSTGAVTSGHYPYWLQQKPGQAPRTLIYDTHNKHSWTPGRFSGSLLGGKAALTLSGAQPEDEAEYYCSLSYSAVWVFGGGTKLTVL
notes: Soluble Fab
binding result [2]: no binding | binding result [3]: no binding
